US20260209301A1 (LIFEARC, published 2026)
No end group written: not given here.

T1: human GalR1 (human, UniProt P47211 1-349)
T1 sequence (looked up): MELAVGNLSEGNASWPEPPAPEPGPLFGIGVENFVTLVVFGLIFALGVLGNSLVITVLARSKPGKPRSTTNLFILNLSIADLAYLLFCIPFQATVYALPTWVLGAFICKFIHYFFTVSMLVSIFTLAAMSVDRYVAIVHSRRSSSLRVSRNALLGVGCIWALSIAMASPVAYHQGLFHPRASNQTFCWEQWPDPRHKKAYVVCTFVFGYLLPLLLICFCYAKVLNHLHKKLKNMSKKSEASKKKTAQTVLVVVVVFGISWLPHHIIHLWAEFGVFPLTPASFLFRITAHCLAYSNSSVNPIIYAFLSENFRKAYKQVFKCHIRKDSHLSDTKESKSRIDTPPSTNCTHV

T2: human GalR2 (human, UniProt O43603 1-387)
T2 sequence (looked up): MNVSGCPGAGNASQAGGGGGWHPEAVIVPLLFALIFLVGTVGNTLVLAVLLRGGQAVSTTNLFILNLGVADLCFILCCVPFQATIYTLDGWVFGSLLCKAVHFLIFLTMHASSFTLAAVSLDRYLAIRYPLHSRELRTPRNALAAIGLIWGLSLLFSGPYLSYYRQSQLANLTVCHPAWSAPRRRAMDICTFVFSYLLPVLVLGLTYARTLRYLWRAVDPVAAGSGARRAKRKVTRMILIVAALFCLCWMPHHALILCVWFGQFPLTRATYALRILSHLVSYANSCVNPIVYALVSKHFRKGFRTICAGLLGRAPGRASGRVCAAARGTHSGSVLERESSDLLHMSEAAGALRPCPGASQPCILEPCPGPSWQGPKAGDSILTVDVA

T3: rat GalR2 (Rattus rattus, UniProt O08726 1-372)
T3 sequence (looked up): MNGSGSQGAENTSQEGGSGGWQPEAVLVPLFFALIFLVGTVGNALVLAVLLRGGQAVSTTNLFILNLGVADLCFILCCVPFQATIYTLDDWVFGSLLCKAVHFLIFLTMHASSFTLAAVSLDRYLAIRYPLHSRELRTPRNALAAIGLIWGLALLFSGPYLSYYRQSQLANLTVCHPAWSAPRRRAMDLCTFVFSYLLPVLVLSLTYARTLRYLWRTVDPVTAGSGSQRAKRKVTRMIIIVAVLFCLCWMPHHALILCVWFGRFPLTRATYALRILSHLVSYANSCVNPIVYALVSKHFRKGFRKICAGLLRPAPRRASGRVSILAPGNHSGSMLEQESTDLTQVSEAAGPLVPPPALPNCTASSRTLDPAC

T4: cynomolgus GalR2 (Macaca fascicularis, UniProt A0A2K5WWW1 1-386)
T4 sequence: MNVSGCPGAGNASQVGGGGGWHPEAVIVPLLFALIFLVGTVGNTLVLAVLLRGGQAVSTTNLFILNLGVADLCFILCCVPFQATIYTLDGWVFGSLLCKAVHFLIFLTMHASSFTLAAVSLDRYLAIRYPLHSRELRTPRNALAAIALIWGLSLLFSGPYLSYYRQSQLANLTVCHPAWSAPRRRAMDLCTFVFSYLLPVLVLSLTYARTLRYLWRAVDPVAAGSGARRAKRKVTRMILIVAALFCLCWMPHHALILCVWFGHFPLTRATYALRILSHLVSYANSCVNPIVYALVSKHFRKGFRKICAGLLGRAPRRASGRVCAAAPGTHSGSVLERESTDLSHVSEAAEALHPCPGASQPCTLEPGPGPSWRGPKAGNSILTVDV

T5: mouse GalR2 (Mus musculus, UniProt O88854 1-371)
T5 sequence (looked up): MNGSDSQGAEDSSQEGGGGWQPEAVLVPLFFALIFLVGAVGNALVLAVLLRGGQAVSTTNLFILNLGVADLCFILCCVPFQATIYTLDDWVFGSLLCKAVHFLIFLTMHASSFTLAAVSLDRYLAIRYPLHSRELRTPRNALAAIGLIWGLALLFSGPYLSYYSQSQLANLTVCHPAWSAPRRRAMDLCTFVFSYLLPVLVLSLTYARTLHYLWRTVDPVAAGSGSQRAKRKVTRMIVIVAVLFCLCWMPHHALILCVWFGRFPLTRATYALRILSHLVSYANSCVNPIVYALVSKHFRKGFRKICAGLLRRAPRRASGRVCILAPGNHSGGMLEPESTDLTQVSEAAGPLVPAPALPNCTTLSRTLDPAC


Tests used:
Assay in all cases: cell-based or functional assay
[1] = biological target: T1, human GalR1
[2] = biological target: T2, human GalR2
[3] = biological target: T3, rat GalR2
[4] = biological target: T4, cynomolgus GalR2
[5] = biological target: T5, mouse GalR2

| Beta Arrestin IA (%) [1] | Beta Arrestin pEC50 [1] | cAMP IA (%) [1] | cAMP pEC50 [1] | Beta Arrestin pEC50 [2] | Calcium pEC50 [2] | calcium assay activity (quantity not given) [3] | calcium assay activity (quantity not given) [4] | calcium assay activity (quantity not given) [5] | Binder |
| --- | --- | --- | --- | --- | --- | --- | --- | --- | --- |
| 99% | 8.68 pEC50 | 90.1% | 10 pEC50 | 8.4 pEC50 | 9.6 pEC50 |  |  |  | GWTLNSAGYLLGPQPPGFSPFR [M617] |
| 24.5% |  | 86.7% | 6.8 pEC50 | 7.9 pEC50 | 8.9 pEC50 |  |  |  | RGRGNWTLNSAGYLLGPVLPPPALALA [M1145] |
|  |  |  |  |  |  | 8.8 | 9.6 | 9 | GWTLNSAGYLLGPHAVGNHRSFSDKNGLTS [Galanin 1-30 (human)] |
| 7% |  | 66% | 6.5 pEC50 | 5.8 pEC50 | 6.9 pEC50 |  |  |  | WTLNSAGYLLGPKKKKK (also: PEG (dPEG24) on one lysine, site not given here) [Nax409-9] |
|  |  |  |  | 7.2 pEC50 | 8.6 pEC50 |  |  |  | GWTLNSAGYLLGPHA [Galanin 1-15] |
| 67.2% | 8.09 pEC50 | 90.8% | 8.6 pEC50 | 8.1 pEC50 | 9.2 pEC50 |  |  |  | WTLNSAGYLLGPHAIDNHRSFHDKYGLA [Galanin 2-29 (rat)] |

| Binder | Beta Arrestin IA (%) [1] | Beta Arrestin pEC50 [1] | cAMP IA (%) [1] | cAMP pEC50 [1] | Beta Arrestin pEC50 [2] | Calcium pEC50 [2] | calcium assay activity (quantity not given) [3] | calcium assay activity (quantity not given) [4] | calcium assay activity (quantity not given) [5] |
| --- | --- | --- | --- | --- | --- | --- | --- | --- | --- |
| WTLNSAGYLL [Galanin 2-11] |  |  |  |  | 6.4 pEC50 | 7.6 pEC50 |  |  |  |
